Reference: publication PMC6786648

Target: EXP1 with G to L point mutations of the first glycine residues of the two GXXG motifs of the TM domain, Ty-tagged (P. falciparum) (UniProt Q8IIF0)
Test: cross-linking; in vivo: parasite cultures in PBS with 1% formaldehyde (PFA), 37°C, 30 minutes, quenched with 30 mM Tris-HCl pH 8.0; extracts of treated and untreated cells immunoblotted with α-Ty

EXP1 with G to L point mutations of the first glycine residues of the two GXXG motifs of the TM domain, Ty-tagged (from UniProt Q8IIF0 1-162) (natural protein)
stoichiometry N: 2
